Laboratory results reported in publication PMC5729044.

Target: 1wa3-wt, the wild-type trimeric aldolase from which I3-01 was derived
Experiment: SEC

Substance: 1wa3-wt, the wild-type trimeric aldolase from which I3-01 was derived (enzyme)
- stoichiometry N: 3
